Test results reported in patent US20210340206A1 (SYLUS, published 2021).
Where two headings read alike, the source gives them in different places.

T1: Soluble mouse EPOR chimera protein (R&D Systems) (mouse, UniProt P14753 25-249)
T1 construct: extracellular domain; Bought from R&D Systems; Amine-coupled to the SPR chip; also called erythropoietin receptor
T1 sequence (looked up): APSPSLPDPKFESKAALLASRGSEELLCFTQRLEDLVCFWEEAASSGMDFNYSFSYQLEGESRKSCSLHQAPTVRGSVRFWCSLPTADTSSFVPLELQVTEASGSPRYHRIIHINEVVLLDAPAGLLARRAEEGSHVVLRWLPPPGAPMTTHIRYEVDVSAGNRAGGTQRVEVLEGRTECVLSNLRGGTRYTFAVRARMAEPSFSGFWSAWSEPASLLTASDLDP

B1: ML1 (peptide)
peptide: LQLHVDKAVSGLRSLTTLLRALG
notes: Synthetic monomer made by solid phase peptide synthesis; also called erythropoietin-derived peptide ML1

Columns and labels:
[1] = target: T1, Soluble mouse EPOR chimera protein (R&D …); assay: SPR, mouse EPOR chimera amine-coupled to chip, peptide as analyte
Description: The SPR technique is to measure interactions between biomolecules in real-time by using an optical principle without specific labeling, and is a system analyzing affinity between two molecules and kinetics, i.e., an association rate (Ka) and a dissociation rate (Kd).
In detail, real-time SPR analysis was performed using Reichert SPR Biosensor SR 7500C instrument (Reichert Inc., NY, USA). Soluble mouse EPOR chimera proteins (R&D Systems, Minneapolis, Minn., USA) were covalently linked to a carboxymethylated dextran matrix-coated chip (BR-1005-39, Pharmacia Biosensor AB) by an amine coupling procedure using an amine coupling kit (BR-1000-50, GE Healthcare, USA) in accordance with manufacturer's instructions. […] For signal normalization, DMSO was applied at a flow rate of 5 μl/minute, and after each binding cycle, the sensor chip was regenerated by injecting 25 mM acetic acid at a flow rate of 20 μl/minute.

[2] = target: T1, Soluble mouse EPOR chimera protein (R&D …); assay: as above; remark: listed apart in the source

Row | Binder | Kd [1] | Kd [2]
1 | KGLRSLISLLRALGAQKEAI (Synthetic monomer) [ML6-1] | 158 µM | 
2 | DEALDLEVDKAATGLRTLTTLIRAL (Synthetic monomer) [ML7-1] | 63.7 µM | 
3 | LQLHVLKAVSGLLTLTMIRRALG [ML1-H2] |  | 0.307 µM
4 | TRVNYQAWKR (Synthetic monomer) [ML3-1] | 4.31 µM | 
5 | KKAVSGLKTLTHILRALGAQKEAI (Synthetic monomer) [ML4-1] | ~39.3 µM | 
6 | LQLHVLKAVSGLLTHTTLLKALG [ML1-H1] |  | 7.85 µM
7 | TKVNFYAWKR (Synthetic monomer) [ML3] | 14.6 µM | 
8 | LQLHVLKRVSGLLSHTMLLKALG (Synthetic monomer) [ML1-1] | 1.06 µM | 
9 | NKAVAGLRSLTVN (Synthetic monomer) [ML8-1] | 2370 µM | 
10 | LQLHVLKAVAGLRTLAMIRRALA [ML1-H3] |  | 1.15 µM
11 | B1 | 6.46 µM | 6.46 µM
12 | LQRHVDKRVSGLRSLTTLLRALG (Charge-modified variant of ML1) [ML1-C2] |  | 11.8 µM
13 | LDLEVDKAVSGLRSLTTLLRALG (Charge-modified variant of ML1) [ML1-C1] |  | 150 µM
14 | AGLRSRAHLRRALA (Synthetic monomer) [ML5-1] | 78.3 µM | 
15 | SGLRSLTTLLRALGAQKEAI (Synthetic monomer) [ML6] | 900 µM | 
16 | LQRHVKKRVKGLKSLTTLLRALG (Charge-modified variant of ML1) [ML1-C3] |  | 9.83 µM
17 | DKAVSGLRSLTTLLRAL (Synthetic monomer) [ML8] | 444 µM | 
18 | SGLRSLTTLLRALG (Synthetic monomer) [ML5] | 0.329 µM | 
19 | DKAVSGLRSLTTLLRALGAQKEAI (Synthetic monomer) [ML4] | 10 µM | 
20 | LHVDKAVSGLRSLTTLLRAL (Synthetic monomer) [ML2] | 273 µM | 
21 | RHVQKAESGLRSLTKLLREL (Synthetic monomer) [ML2-1] | 14.3 µM | 
